Results reported in the RNAGym collection of RNA variant scans (doi:10.1101/gr.219683.116).

B1: mRNA-splicing (parent)
chain: AGUUGCUGCUGGGAGCUCCAGCACAGUGAAAUGGACAGAAGGGCAGAGCAA

Variants of: B1
Assay: exon inclusion enrichment index; higher = more inclusion; WT1 exon 5 minigene, HEK293

Variant	exon inclusion enrichment index
AGUUAUAUAUGGGAGCUCCGUCACAGUGAAAUGGACAGAAGGGCAGAGCAA [G5A C6U U7A G8U C9A A20G G21U]	0.0713
AGUUCGCGCCGUGAGCUCCAGCACAGUGAAAUGGACAGAAGGGCAGAGCAA [G5C C6G U7C U10C G12U]	1.53
AGUUCGCGCCGGGAGCAUCAGCACAGUGAAAUGGACAGAAGGGCAGAGCAA [G5C C6G U7C U10C U17A C18U]	3.37
AGUUGCUGCUGGGAGCUCCAGCACAGUGAAAUGGACCAAAGGGCAGAGCAA [A37C G38A]	0.152
AGUUAGGGAUGGGAGCUUUAGCACAGUGAAAUGGACAGAAGGGCAGAGCAA [G5A C6G U7G C9A C18U C19U]	0.00102
AGUUAUAUAUGGGAGCUCCAGCACAGUGAAAUGGACAGCUGGGCAGAGCAA [G5A C6U U7A G8U C9A A39C A40U]	0.0208
AGUUCUUCUCGGGUGCUCCAGCACAGUGAAAUGGACAGAAGGGCAGAGCAA [G5C C6U G8C C9U U10C A14U]	0.661
AGUUUCUUUGGGGAGCUCCAGCACAGUGAAAUGGACAGAAGGGCAGAGCAA [G5U G8U C9U U10G]	0.095
AGUUUCUUUUGGGAGCUCCAGCACAGUGAAAUGGACAGUCGGGCAGAGCAA [G5U G8U C9U A39U A40C]	0.287
AGUUCGCGCCGGGAGCUCCAGCACAGUGAAAUGGACAGAGUGGCAGAGCAA [G5C C6G U7C U10C A40G G41U]	3.4
AGUUCUUCUCGGGAGCUCCUCCACAGUGAAAUGGACAGAAGGGCAGAGCAA [G5C C6U G8C C9U U10C A20U G21C]	1.62
AGUUGACGACGGGAGCUCCAGCACAGUGCGAUGGACAGAAGGGCAGAGCAA [C6A U7C C9A U10C A29C A30G]	4.07
AGUUCGCGCCGGGAGCUCCAGCGUAGUGAAAUGGACAGAAGGGCAGAGCAA [G5C C6G U7C U10C A23G C24U]	1.96
AGUUACCACCGGGAGCUCCAGCACAGUGAAAUGGACAGAAGGGCAGGACAA [G5A U7C G8A U10C A47G G48A]	1.37
AGUUAUAUAUGGGAGCUCCAGCACAGCUAAAUGGACAGAAGGGCAGAGCAA [G5A C6U U7A G8U C9A U27C G28U]	0.0508
AGUUGCUGCUGGGAGCACCAGCACAGUGAAAUGGACAGAAGGGCAGAGCAA [U17A]	0.131
AGUUAGGGAUGGGAGCUCCAGCACAGUGAAAUCAACAGAAGGGCAGAGCAA [G5A C6G U7G C9A G33C G34A]	0.000739
AGUUAUAUAUGGGAGCUCUGGCACAGUGAAAUGGACAGAAGGGCAGAGCAA [G5A C6U U7A G8U C9A C19U A20G]	0.00852
AGUUCUUCUCGGGAGCUCCAGCACAGUGAAAUGCCCAGAAGGGCAGAGCAA [G5C C6U G8C C9U U10C G34C A35C]	0.141
AGUUUCUUUUGGGAGCUCCAGCACCAUGAAAUGGACAGAAGGGCAGAGCAA [G5U G8U C9U A25C G26A]	0.504
AGUUGACGACGGGAGCUCCAGCACAGUGAAAUGGACAGAAGGGCUUAGCAA [C6A U7C C9A U10C A45U G46U]	1.75
AGUUCACACAGGGAGCUCCAGCUCAGUGAAAUGGACAGAAGGGCAGAGCAA [G5C C6A U7C G8A U10A A23U]	0.0425
AGUUCACACAGGGAGCUCCAGCAGGGUGAAAUGGACAGAAGGGCAGAGCAA [G5C C6A U7C G8A U10A C24G A25G]	0.034
AGUUACCACCGGGAGCUCCAGCACAGUGAAAUGGACAGAAGGGCCGAGCAA [G5A U7C G8A U10C A45C]	2.28
AGUUGACGACGGGAGCUCCAGCACAGUGAAAUGGACUAAAGGGCAGAGCAA [C6A U7C C9A U10C A37U G38A]	1.46
AGUUCACACAGGGAGCUCCAUGACAGUGAAAUGGACAGAAGGGCAGAGCAA [G5C C6A U7C G8A U10A G21U C22G]	0.113

Variant	exon inclusion enrichment index
AGUUUCUUUUGGGAGCUCCAGCACAGGAAAAUGGACAGAAGGGCAGAGCAA [G5U G8U C9U U27G G28A]	0.148
AGUUGCUGCUGGGAGCUCCAGCACAGUGAAAUGGACAUCAGGGCAGAGCAA [G38U A39C]	0.125
AGUUCACACAGGGAGCUCCAGCACAGUGAAAUGGACAGAAGGAUAGAGCAA [G5C C6A U7C G8A U10A G43A C44U]	0.16
AGUUCACCAAGGGAGCUCCAGCACAGUGAAAUGGACAGAAGGGCAGAGCAA [G5C C6A U7C G8C C9A U10A]	0.741
AGUUGCUGCUGGGAGCUCCAGCACAGUGAAAUGGUUAGAAGGGCAGAGCAA [A35U C36U]	0.000825
AGUUGACGACGGGAGCUCCAGCACAGUCAAAUGGACAGAAGGGCAGAGCAA [C6A U7C C9A U10C G28C]	3.06
AGUUCGCGCCGGGAAAUCCAGCACAGUGAAAUGGACAGAAGGGCAGAGCAA [G5C C6G U7C U10C G15A C16A]	3.14
AGUUAGGGAUGGGAGCUCCAGCACAGUGAAAUUUACAGAAGGGCAGAGCAA [G5A C6G U7G C9A G33U G34U]	0.000939
AGUUACCACCGGGAGCUCCAGCACAGUCAAAUGGACAGAAGGGCAGAGCAA [G5A U7C G8A U10C G28C]	1.68
AGUUCACACAGUUAGCUCCAGCACAGUGAAAUGGACAGAAGGGCAGAGCAA [G5C C6A U7C G8A U10A G12U G13U]	0.00142
AGUUGAAGAAGGUCGCUCCAGCACAGUGAAAUGGACAGAAGGGCAGAGCAA [C6A U7A C9A U10A G13U A14C]	1.14
AGUUUCUUUUGGGAGCUCCAGCAACGUGAAAUGGACAGAAGGGCAGAGCAA [G5U G8U C9U C24A A25C]	0.849
AGUUAGGGAUGGGAGCUCCAACACAGUGAAAUGGACAGAAGGGCAGAGCAA [G5A C6G U7G C9A G21A]	0.00299
AGUUCAAACAGGGAGCUCCAGCACAGUGAAAUGGACAGAAGGGCAGAGCAA [G5C C6A U7A G8A U10A]	0.0993
AGUUGACGACGGGAGCUCCAGCACAGUGAAAUAGACAGAAGGGCAGAGCAA [C6A U7C C9A U10C G33A]	0.648
AGUUAUAUAUGGUUGCUCCAGCACAGUGAAAUGGACAGAAGGGCAGAGCAA [G5A C6U U7A G8U C9A G13U A14U]	0.0119
AGUUGCUGCUGGGAGCUCCAGCACAGUGAAAUGGACAGAAAGGCAGAGCAA [G41A]	0.0829
AGUUAGGGAUGGGAAUUCCAGCACAGUGAAAUGGACAGAAGGGCAGAGCAA [G5A C6G U7G C9A G15A C16U]	0.000755
AGUUGACGACAAGAGCUCCAGCACAGUGAAAUGGACAGAAGGGCAGAGCAA [C6A U7C C9A U10C G11A G12A]	2.21
AGUUCGCGCCGGGAGCUCCAGGUCAGUGAAAUGGACAGAAGGGCAGAGCAA [G5C C6G U7C U10C C22G A23U]	1.01
AGUUCGCGCCGGGAGCUCCAGCACAGUGAAAGUGACAGAAGGGCAGAGCAA [G5C C6G U7C U10C U32G G33U]	1.88
AGUUGCUGCUGGGAGCUCCAGCACAGUAAAAUGGACAGAAGGGCAGAGCAA [G28A]	0.0138
AGUUGAAGAAGGGAGCUGCAGCACAGUGAAAUGGACAGAAGGGCAGAGCAA [C6A U7A C9A U10A C18G]	0.561
AGUUGACGACGGGAGCUCCAGCACAGUGAAAUGGACAGAAGGUGAGAGCAA [C6A U7C C9A U10C G43U C44G]	0.567
AGUUACCACCGGGAGCUCCAGCACAGUGAAAUGGACAGAAGUACAGAGCAA [G5A U7C G8A U10C G42U G43A]	3.16
